Patent US20200262877A1, “ION CHANNEL-BINDING PEPTIDES AND METHODS OF USE THEREOF” (priority 2017, published 2020)

Assays:
NR2B = molecular target: T1, NR2B (Homo sapiens, UniProt Q13224); assay: Ion channel panel (IonWorks Barracuda): NR2B; format: cell-based; conditions: 100% = no change, <100% = inhibition
T1 construct: host or cells: HEK293 or CHO
Method: (§1) This example describes a method for assaying ion channel activity in cells.
(§2) Peptides were screened in duplicate at final concentrations of 20 μM and 200 nM, as determined by amino acid analysis, and diluted into HEPES buffered physiological saline (HBPS). HEK293 or CHO cells from the American Type Culture Collection (ATCC) were transfected with the appropriate ion channel before use. HEK293 cells were grown in Dulbecco's Modified Eagle Medium/Nutrient Mixture F-12, and CHO cells were cultured in Ham's F-12 media. All cultures were supplemented with 10% fetal bovine serum, 100 U/ml penicillin G, 100 μg/ml streptomycin sulfate, and the appropriate selection antibiotics. Prior to use, cells were washed twice with Hank's Balanced Salt Solution, and treated with Accutase cell detachment solution (Sigma-Aldrich). Cells were then washed. Peptides and controls were incubated with cells for at least five minutes.
(§3) Percent inhibition was defined as: (1-(Ipeptide/Icontrol))×100%).
(§4) Percent values were calculated using the following formula: % activation=(IPeptide/Icontrol)×100%, where IPeptide is the current produced by co-application a peptide with agonist, and Icontrol refers to the current produced by stimulation in control. Control used for each ion channel is the reference compound matched to a particular channel, as illustrated in TABLE 10 below.

GABA = assay: Ion channel panel (IonWorks Barracuda): GABA; format: cell-based; conditions: 100% = no change, <100% = inhibition
Method: as §1, §2, §3, §4

5HT3a = molecular target: T2, 5HT3a (Homo sapiens, UniProt P46098); assay: Ion channel panel (IonWorks Barracuda): 5HT3a; format: cell-based
T2 construct: host or cells: HEK293 or CHO
T2 sequence (P46098 whole entry, looked up): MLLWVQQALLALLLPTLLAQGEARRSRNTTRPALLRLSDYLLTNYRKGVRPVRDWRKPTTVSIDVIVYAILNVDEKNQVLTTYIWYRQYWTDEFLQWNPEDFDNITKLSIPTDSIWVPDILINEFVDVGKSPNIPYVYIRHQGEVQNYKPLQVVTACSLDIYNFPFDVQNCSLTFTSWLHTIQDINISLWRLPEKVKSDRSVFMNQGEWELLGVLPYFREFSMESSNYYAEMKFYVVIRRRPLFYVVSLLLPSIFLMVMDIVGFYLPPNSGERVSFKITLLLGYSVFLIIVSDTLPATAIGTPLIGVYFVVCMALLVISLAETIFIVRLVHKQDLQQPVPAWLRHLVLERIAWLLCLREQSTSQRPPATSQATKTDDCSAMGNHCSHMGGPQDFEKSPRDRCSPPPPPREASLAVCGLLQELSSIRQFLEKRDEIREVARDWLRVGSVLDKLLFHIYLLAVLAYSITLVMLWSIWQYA
Method: as §1, §2, §3, §4

TRPV1 = molecular target: T3, TRPV1 (Homo sapiens, UniProt Q8NER1); assay: Ion channel panel (IonWorks Barracuda): TRPV1; format: cell-based; conditions: 100% = no change, <100% = inhibition
T3 construct: host or cells: HEK293 or CHO
T3 sequence (Q8NER1 whole entry): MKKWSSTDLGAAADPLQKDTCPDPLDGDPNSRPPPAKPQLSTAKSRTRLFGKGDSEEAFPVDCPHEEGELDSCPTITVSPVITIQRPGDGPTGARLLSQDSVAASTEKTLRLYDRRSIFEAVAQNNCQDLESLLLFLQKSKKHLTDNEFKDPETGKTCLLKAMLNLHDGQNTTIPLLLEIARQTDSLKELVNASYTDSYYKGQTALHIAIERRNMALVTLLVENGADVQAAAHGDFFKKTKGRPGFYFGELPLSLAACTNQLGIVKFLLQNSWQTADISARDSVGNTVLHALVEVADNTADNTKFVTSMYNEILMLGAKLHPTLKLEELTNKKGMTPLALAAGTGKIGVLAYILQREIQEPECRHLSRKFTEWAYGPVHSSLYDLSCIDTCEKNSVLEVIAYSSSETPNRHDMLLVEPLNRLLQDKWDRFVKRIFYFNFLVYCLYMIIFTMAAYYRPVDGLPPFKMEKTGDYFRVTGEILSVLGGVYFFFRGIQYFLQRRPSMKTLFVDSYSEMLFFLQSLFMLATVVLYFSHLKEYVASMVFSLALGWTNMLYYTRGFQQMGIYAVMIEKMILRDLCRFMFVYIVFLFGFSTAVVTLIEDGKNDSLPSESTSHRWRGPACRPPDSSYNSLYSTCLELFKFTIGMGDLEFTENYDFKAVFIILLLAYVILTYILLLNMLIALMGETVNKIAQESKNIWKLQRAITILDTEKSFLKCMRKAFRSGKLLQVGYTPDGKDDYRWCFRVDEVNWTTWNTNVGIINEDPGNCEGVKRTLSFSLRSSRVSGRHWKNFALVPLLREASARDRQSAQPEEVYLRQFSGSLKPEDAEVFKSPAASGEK
Method: as §1, §2, §3, §4

TRPA1 = molecular target: T4, TRPA1 (Homo sapiens, UniProt O75762); assay: Ion channel panel (IonWorks Barracuda): TRPA1; format: cell-based; conditions: 100% = no change, <100% = inhibition
T4 construct: host or cells: HEK293 or CHO
Method: as §1, §2, §3, §4

Nav1.7 = molecular target: T5, Nav1.7 (Homo sapiens, UniProt Q15858); assay: cell-based; format: cell-based; conditions: 100% = no change; for Activity of Nav1.7 with peptide, expressed as a percentage of the reference compound: peptide at 0.2 μM; for Activity of Nav1.7 with peptide (percentage of the reference compound): peptide at 20 μM
T5 construct: host or cells: HEK293 or CHO
T5 sequence (Q15858 whole entry): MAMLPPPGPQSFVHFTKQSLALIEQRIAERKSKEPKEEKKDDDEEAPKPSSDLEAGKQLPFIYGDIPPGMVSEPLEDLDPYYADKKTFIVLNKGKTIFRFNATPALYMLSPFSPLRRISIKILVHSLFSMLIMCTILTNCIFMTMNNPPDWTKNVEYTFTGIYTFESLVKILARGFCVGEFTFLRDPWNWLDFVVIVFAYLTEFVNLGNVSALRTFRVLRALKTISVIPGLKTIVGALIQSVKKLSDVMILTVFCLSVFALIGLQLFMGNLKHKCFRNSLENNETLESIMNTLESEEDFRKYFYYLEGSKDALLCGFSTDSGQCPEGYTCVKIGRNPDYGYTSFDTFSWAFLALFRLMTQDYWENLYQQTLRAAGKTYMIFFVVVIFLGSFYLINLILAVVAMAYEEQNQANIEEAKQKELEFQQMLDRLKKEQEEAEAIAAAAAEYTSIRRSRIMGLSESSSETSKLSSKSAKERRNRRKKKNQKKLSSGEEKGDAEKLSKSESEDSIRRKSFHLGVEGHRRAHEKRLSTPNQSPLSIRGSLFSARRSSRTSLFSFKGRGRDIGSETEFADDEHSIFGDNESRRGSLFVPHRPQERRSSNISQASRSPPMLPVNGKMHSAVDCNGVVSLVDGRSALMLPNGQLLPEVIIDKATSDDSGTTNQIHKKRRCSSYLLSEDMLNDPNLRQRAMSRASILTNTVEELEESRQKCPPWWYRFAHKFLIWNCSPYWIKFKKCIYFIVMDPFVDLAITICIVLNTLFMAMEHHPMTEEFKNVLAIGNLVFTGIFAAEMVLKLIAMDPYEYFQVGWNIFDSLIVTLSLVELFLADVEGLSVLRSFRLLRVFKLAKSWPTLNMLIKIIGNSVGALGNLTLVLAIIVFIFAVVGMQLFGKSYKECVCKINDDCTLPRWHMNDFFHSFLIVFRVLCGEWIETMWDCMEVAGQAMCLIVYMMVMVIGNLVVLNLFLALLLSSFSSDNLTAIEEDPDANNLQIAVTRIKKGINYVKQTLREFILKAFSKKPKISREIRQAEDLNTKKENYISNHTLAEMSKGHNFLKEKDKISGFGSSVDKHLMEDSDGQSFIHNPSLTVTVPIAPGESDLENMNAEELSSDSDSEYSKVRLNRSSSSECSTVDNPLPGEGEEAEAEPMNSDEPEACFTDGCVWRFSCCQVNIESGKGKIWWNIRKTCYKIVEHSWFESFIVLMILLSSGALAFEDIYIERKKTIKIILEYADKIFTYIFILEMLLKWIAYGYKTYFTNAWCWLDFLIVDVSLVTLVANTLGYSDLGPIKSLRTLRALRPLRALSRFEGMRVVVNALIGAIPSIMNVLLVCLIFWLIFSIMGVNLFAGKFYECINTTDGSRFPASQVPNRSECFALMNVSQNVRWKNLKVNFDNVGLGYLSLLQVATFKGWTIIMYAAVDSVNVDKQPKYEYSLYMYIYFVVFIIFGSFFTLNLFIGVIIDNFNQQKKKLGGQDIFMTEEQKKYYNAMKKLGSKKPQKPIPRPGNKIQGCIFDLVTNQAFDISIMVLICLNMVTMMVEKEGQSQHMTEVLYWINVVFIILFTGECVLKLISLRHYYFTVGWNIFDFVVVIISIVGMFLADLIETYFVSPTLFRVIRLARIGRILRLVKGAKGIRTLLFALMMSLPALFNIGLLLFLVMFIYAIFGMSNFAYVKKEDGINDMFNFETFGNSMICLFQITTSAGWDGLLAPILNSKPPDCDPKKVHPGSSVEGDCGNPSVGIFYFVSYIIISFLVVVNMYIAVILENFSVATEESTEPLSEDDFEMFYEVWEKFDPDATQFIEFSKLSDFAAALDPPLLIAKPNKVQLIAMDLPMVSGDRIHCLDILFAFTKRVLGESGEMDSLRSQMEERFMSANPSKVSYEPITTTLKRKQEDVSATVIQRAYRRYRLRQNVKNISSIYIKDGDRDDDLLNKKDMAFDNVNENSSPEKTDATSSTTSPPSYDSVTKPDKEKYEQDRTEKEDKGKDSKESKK
Method: as §1
as §2, with “Peptides were screened in duplicate at final concentrations of 20 μM and 200 nM, as determined by amino acid analysis, and diluted into HEPES buffered physiological saline (HBPS).” left out
as §3, §4

NR2A = molecular target: T6, NR2A (Homo sapiens, UniProt Q12879); assay: Ion channel panel (IonWorks Barracuda): NR2A; format: cell-based; conditions: 100% = no change, <100% = inhibition
T6 construct: host or cells: HEK293 or CHO
Method: as §1, §2, §3, §4

α4β2 = molecular target: T7, α4β2 (Homo sapiens, UniProt P17787+P43681); assay: Ion channel panel (IonWorks Barracuda): α4β2; format: cell-based; conditions: 100% = no change, <100% = inhibition
T7 construct: host or cells: HEK293 or CHO
Method: as §1, §2, §3, §4

Kv2.1 = molecular target: T8, Kv2.1 (Homo sapiens, UniProt Q14721); assay: cell-based; conditions: 100% = no change, <100% = inhibition
T8 construct: host or cells: HEK293 or CHO
Method: as §1, §2, §3, §4

Cav2.1 = molecular target: T9, Cav2.1 (Homo sapiens, UniProt O00555); assay: cell-based; conditions: 100% = no change, <100% = inhibition
T9 construct: host or cells: HEK293 or CHO
Method: as §1, §2, §3, §4

Cav2.2 = molecular target: T10, Cav2.2 (Homo sapiens, UniProt Q00975); assay: cell-based; conditions: 100% = no change, <100% = inhibition
T10 construct: host or cells: HEK293 or CHO
Method: as §1, §2, §3, §4

α3β4 = molecular target: T11, α3β4 (Homo sapiens, UniProt P30926+P32297); assay: Ion channel panel (IonWorks Barracuda): α3β4; format: cell-based; conditions: 100% = no change, <100% = inhibition
T11 construct: host or cells: HEK293 or CHO
Method: as §1, §2, §3, §4

Kir2.1 = molecular target: T12, Kir2.1 (Homo sapiens, UniProt P63252); assay: Ion channel panel (IonWorks Barracuda): Kir2.1; format: cell-based; conditions: 100% = no change, <100% = inhibition
T12 construct: host or cells: HEK293 or CHO
Method: as §1, §2, §3, §4

Kv1.1 = molecular target: T13, Kv1.1 (Homo sapiens, UniProt Q09470); assay: cell-based; format: cell-based; conditions: 100% = no change, <100% = inhibition
T13 construct: host or cells: HEK293 or CHO
Method: as §1, §2, §3, §4

Kv1.2 = molecular target: T14, Kv1.2 (Homo sapiens, UniProt P16389); assay: cell-based; format: cell-based; conditions: 100% = no change, <100% = inhibition
T14 construct: host or cells: HEK293 or CHO
Method: as §1, §2, §3, §4

Kv1.3 = molecular target: T15, Kv1.3 (Homo sapiens, UniProt P22001); assay: cell-based; format: cell-based; conditions: 100% = no change, <100% = inhibition
T15 construct: host or cells: HEK293 or CHO
Method: as §1, §2, §3, §4

hERG = hERG (Homo sapiens, UniProt Q12809); assay: in vitro; conditions: 100% = no change, <100% = inhibition
Method: as §1, §2, §3, §4

Nav1.5 = Nav1.5 (Homo sapiens, UniProt Q14524); assay: in vitro; conditions: 100% = no change; for Activity of Nav1.5 with peptide, expressed as a percentage of the reference compound: peptide at 0.2 μM; for Activity of Nav1.5 with peptide (percentage of the reference compound): peptide at 20 μM
Sequence of Nav1.5 (Q14524 whole entry): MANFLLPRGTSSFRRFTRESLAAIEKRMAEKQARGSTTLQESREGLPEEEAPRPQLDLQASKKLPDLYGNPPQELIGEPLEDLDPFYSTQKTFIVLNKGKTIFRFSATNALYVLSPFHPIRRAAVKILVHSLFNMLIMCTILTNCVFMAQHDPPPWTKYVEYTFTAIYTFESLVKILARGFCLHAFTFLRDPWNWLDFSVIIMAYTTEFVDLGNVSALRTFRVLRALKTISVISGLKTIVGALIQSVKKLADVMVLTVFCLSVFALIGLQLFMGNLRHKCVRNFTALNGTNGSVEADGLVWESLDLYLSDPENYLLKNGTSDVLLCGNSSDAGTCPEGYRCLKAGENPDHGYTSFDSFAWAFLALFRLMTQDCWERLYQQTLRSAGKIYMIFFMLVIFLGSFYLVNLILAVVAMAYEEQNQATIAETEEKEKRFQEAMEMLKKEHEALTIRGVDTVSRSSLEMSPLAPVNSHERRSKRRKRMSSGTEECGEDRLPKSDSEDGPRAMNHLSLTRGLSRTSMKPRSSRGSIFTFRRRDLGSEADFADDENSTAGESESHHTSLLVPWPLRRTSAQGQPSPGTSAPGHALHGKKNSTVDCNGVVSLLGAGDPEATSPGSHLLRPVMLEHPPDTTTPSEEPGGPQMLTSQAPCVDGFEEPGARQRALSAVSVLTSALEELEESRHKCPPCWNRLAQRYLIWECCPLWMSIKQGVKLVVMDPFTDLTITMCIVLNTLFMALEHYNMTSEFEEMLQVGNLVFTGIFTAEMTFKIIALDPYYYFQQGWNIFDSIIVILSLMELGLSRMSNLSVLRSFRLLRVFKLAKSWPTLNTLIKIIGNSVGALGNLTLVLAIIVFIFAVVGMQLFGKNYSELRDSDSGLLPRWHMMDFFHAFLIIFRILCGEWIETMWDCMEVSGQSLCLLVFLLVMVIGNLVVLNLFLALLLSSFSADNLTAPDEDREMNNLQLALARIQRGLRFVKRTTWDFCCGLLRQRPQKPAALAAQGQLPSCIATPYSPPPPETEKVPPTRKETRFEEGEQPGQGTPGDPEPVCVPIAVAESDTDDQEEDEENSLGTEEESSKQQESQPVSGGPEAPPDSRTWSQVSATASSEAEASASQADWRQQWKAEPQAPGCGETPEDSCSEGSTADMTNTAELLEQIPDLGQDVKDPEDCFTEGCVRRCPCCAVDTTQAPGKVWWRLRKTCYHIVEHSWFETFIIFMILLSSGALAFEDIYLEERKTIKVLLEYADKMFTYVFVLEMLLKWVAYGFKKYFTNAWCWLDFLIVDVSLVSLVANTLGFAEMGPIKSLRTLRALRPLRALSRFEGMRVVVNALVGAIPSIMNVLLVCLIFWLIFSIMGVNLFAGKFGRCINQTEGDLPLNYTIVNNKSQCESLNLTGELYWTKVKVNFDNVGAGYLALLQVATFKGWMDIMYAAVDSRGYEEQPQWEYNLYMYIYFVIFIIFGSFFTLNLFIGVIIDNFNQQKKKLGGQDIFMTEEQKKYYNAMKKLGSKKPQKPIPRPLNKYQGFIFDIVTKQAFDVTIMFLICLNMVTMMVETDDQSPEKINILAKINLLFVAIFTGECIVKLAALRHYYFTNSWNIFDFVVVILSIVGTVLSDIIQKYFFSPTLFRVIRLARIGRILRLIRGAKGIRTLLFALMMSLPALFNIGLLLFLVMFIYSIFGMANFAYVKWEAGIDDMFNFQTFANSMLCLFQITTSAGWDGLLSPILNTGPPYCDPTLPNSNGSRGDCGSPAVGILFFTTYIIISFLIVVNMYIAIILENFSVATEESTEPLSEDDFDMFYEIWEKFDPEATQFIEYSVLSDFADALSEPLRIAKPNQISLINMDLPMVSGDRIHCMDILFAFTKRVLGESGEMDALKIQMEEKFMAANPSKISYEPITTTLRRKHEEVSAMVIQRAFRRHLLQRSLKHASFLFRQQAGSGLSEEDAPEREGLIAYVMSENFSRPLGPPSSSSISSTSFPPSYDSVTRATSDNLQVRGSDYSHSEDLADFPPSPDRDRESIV
Method: as §1, §2, §3, §4

[1] = first of two Nav1.7 columns (probably TP1)
[2] = second of two Nav1.7 columns (probably TP2)
[3] = first of two Nav1.5 columns (probably TP1)
[4] = second of two Nav1.5 columns (probably TP2)

Substance: 11 (GSGDCLPHLKRCKENNDCCSKKCKRRGANPEKRCR) [compound 11]
- Activity of NR2B with peptide, expressed as a percentage of the reference compound (NR2B; peptide at 0.2 μM): 103%
- Activity of NR2B with peptide (percentage of the reference compound) (NR2B; peptide at 20 μM): 78%
- Activity of GABA with peptide, expressed as a percentage of the reference compound (GABA; peptide at 0.2 μM): 96%
- Activity of GABA with peptide (percentage of the reference compound) (GABA; peptide at 20 μM): 105%
- Activity of 5HT3a with peptide (percentage of the reference compound) (5HT3a): 85%
- Activity of 5HT3a with peptide, expressed as a percentage of the reference compound (5HT3a): 73%
- Activity of TRPV1 with peptide, expressed as a percentage of the reference compound (TRPV1; peptide at 0.2 μM): 100%
- Activity of TRPV1 with peptide (percentage of the reference compound) (TRPV1; peptide at 20 μM): 100%
- Activity of TRPA1 with peptide, expressed as a percentage of the reference compound (TRPA1; peptide at 0.2 μM): 100%
- Activity of TRPA1 with peptide (percentage of the reference compound) (TRPA1; peptide at 20 μM): 109%
- Activity of Nav1.7 with peptide, expressed as a percentage of the reference compound (Nav1.7; [1]): 107%
- Activity of Nav1.7 with peptide, expressed as a percentage of the reference compound (Nav1.7; [2]): 107%
- Activity of Nav1.7 with peptide (percentage of the reference compound) (Nav1.7; [1]): 96%
- Activity of Nav1.7 with peptide (percentage of the reference compound) (Nav1.7; [2]): 87%
- Activity of NR2A with peptide, expressed as a percentage of the reference compound (NR2A; peptide at 0.2 μM): 103%
- Activity of NR2A with peptide (percentage of the reference compound) (NR2A; peptide at 20 μM): 106%
- Activity of a4b2 with peptide, expressed as a percentage of the reference compound (α4β2; peptide at 0.2 μM): 111%
- Activity of a4b2 with peptide (percentage of the reference compound) (α4β2; peptide at 20 μM): 88%
- Activity of Kv2.1 with peptide, expressed as a percentage of the reference compound (Kv2.1; peptide at 0.2 μM): 121%
- Activity of Kv2.1 with peptide (percentage of the reference compound) (Kv2.1; peptide at 20 μM): 110%
- Activity of Cav2.1 with peptide, expressed as a percentage of the reference compound (Cav2.1; peptide at 0.2 μM): 104%
- Activity of Cav2.1 with peptide (percentage of the reference compound) (Cav2.1; peptide at 20 μM): 110%
- Activity of Cav2.2 with peptide, expressed as a percentage of the reference compound (Cav2.2; peptide at 0.2 μM): 100%
- Activity of Cav2.2 with peptide (percentage of the reference compound) (Cav2.2; peptide at 20 μM): 103%
- Activity of a3b4 with peptide, expressed as a percentage of the reference compound (α3β4; peptide at 0.2 μM): 95%
- Activity of a3b4 with peptide (percentage of the reference compound) (α3β4; peptide at 20 μM): 96%
- Activity of Kir2.1 with peptide, expressed as a percentage of the reference compound (Kir2.1; peptide at 0.2 μM): 107%
- Activity of Kir2.1 with peptide (percentage of the reference compound) (Kir2.1; peptide at 20 μM): 97%
- Activity of Kv1.1 with peptide, expressed as a percentage of the reference compound (Kv1.1; peptide at 0.2 μM): 99%
- Activity of Kv1.1 with peptide (percentage of the reference compound) (Kv1.1; peptide at 20 μM): 55%
- Activity of Kv1.2 with peptide, expressed as a percentage of the reference compound (Kv1.2; peptide at 0.2 μM): 103%
- Activity of Kv1.2 with peptide (percentage of the reference compound) (Kv1.2; peptide at 20 μM): 46%
- Activity of Kv1.3 with peptide, expressed as a percentage of the reference compound (Kv1.3; peptide at 0.2 μM): 101%
- Activity of Kv1.3 with peptide (percentage of the reference compound) (Kv1.3; peptide at 20 μM): 87%
- Activity of hERG with peptide, expressed as a percentage of the reference compound (hERG; peptide at 0.2 μM): 97%
- Activity of hERG with peptide (percentage of the reference compound) (hERG; peptide at 20 μM): 99%
- Activity of Nav1.5 with peptide, expressed as a percentage of the reference compound (Nav1.5; [3]): 107%
- Activity of Nav1.5 with peptide, expressed as a percentage of the reference compound (Nav1.5; [4]): 107%
- Activity of Nav1.5 with peptide (percentage of the reference compound) (Nav1.5; [3]): 113%
- Activity of Nav1.5 with peptide (percentage of the reference compound) (Nav1.5; [4]): 118%
